For assay [1], the target named is His-tagged FP8_v1 (HIV-1). Kind of assay: SPR. Background: SPR reads the build-up and loss of mass on a sensor chip optically.
Assay [2] has as its target His-tagged FP8_v1 (HIV-1). Put plainly: BLI.
Assay [3] deals with BG505 DS-SOSIP ∆88 Env trimer (glycan N88 removed) (HIV-1 strain BG505). Put plainly: SPR.

B1: VRC34.07 Fab (Fab, V domains shown)
VH: SQYLAQPGAEVAKPGASVKVSCKVHGDNFRGHYLHWVRQAPGQGLQWIGGINPFSGEAAYGKRFEGRLRLTRDTSVNTAYMELAKLTPDDTAVYFCARDKTYNDEFTAMDIWGHGTTVIVSS
VL: DIKLTQSPAFLSASVGERVTFTCRASQDISHDLVWFQQKAGRAPSLLMFYGSTLERGVPPRFSGRRSGTEFTVTIDSLQPEDVGTYYCQQLSAFPLTFGGGTTVDIK
B1: the dissociation constant (Kd) in assay [1] was found to be 0.2 nM.

B2: VRC34-pI3 P33A (heavy chain) mutant antibody (antibody, V domains shown)
VH: QEVLVQSGAEVKKPGASVKVSCKAFGYTFTGNAMHWVRQAPGQGLEWMGWINPHSGDTTTAQKFQGRVYMTRDKSINTAYLDVTRLTSDDTAIYYCARDKYYGNEAVGMDVWGQGTTVTVSS
VL: DIQLTQSPSFLSASVGDRVTITCRASQGISNELAWYQQKPGKAPNLLIYYASTLQSGVPSRFSASGSGTHFTLTISSLQPEDFATYFCQHMSSYPLTFGGGTKVEIK
Regarding B2, the dissociation constant Kd in assay [2] was determined as 60 nM.

B3: VRC34.05 Fab (Fab, V domains shown)
VH: SQYLAQSGSEVKKPGASVKVSCRLHGDKFGAHYIHWVRQAPGQGLEWLGFFHPGTGDAVSAQKFQGRISLTRDTSISTGYLEVRRLSSDDTAVYYCARDKTYSDEATGMDIWGQGTTVIVSS
VL: DIKLTQSPAFLSASVGERVTFTCRASQDIRHELVWYQQKPGRGPKLLIYYGSTLEGGVPSRFSGRRSGTEFTVTISSLQPEDVGTYYCQQLNSFPLTFGGGTTVDIR
Molecule B3 displayed a fold decrease of affinity against the BG505 trimer with glycan N88 in assay [3] of 100 fold.

As usually defined, the Kd is the concentration at which binding is half-saturated.

The record behind these values is publication PMC7467872.
